Laboratory results taken from paper PMC7588467.

Biological target: OP protein cage
Assay: cryo-EM structure; OP cages empty, with SDS (800 equiv.) or with SDS:CS, in TSEC buffer; octahedral symmetry imposed; rigid-body fit of the OP crystal structure (PDB 6FDB)

Substance: OP protein cage
- stoichiometry N (monomers per cage): 24
